Measured values from the DeepSol protein solubility set.

Test: soluble on expression in E. coli; label from the status in PepcDB or PDB records
In the case of “MSLSLLSKLDVSPLQFQDPSKDGSKIINLNLDGSGDPLRLSELGESDYSNSIKVRDNEYVTYHLSNDYSVLTIYSMNDALQNKTINIKLPVQSTNKQHTSIVFVKDEAFNVEFILRNSIYLKISIPIDFIINNSSELNEDWFYVLQPYDFSVRKPHMLHRVSDNFSVVFLEDGGLVGLTSHGETDLEPILFNDNSYLQSITRLFSKSKHSKNSKVVSCSNYQSNFLIVLTEDCILKIWDLKKLILINEYNLFDVNNSDFIAGGLFDSCGNYLHLFNNLLTIYLPFTNGLFQVGTLDVDSSDKLTFQSKIVIPSNLPASSLWSLTDMRMINPLDLNLPETFLNIIVLWKSGTMSKLQILNILNESVDSYEWIDASNKDLEETRIESDIESSDFSKTLFKLTSRYPKAIVDRAIKVLEENGISIPLQEALDEEYLANLETLLRDIKGGCDEASSLTLYNDEIIVINCLQKYNYSIYKINCSLEKTYFDINDDSEGHHHHHH”, the “soluble on expression in E. coli” value is reported as “soluble”.
In the case of “GEFGDEDLEELCPVCGDKVSGYHYGLLTCESCKGFFKRTVQNNKRYTCIENQNCQIDKTQRKRCPYCRFQKCLSVGMKLEAVRADRMRGGRNKFGPMYKRDRALKQQKKALIR”, the “soluble on expression in E. coli” value is reported as “soluble”.
For “MAGDPMSTVAFHTLGCKVNHYETEAIWQLFKEANYERVDFEANADVFVINTCTVTNTGDKKSRQIIRRAIRQNPDAVICVTGCYAQTSSAEIMEIPGVDVVVGTQDRHKLLGYIDEFRKERQPINGVGNIMKNRKYEELDVPYFTDRTRASLKIQEGCNNFCTFCIIPWARGLMRSRDPEKVVEQATQLVNSGYKEIVLTGIHTGGYGQDLKDYNLAQLLRDLETINGLERIRISSIEASQLTDEVIDVLERSTKVVRHLHIPLQSGSDTVLKRMRRKYTMDRFSERLTKLHKALPDLAVTSDVIVGFPGETEAEFQETYDFIVKHKFSELHVFPYSPRIGTPAARMDDQIDEEIKNERVHKLITLSNQLGKLYASKFDQDVLEVIPEEQGDTEGTLVGYADNYMKVQFEGDESLIGQIVKVKITQANYPLNEGQAIKVVDFATNKSDREVLVLEHHHHHH”, the “soluble on expression in E. coli” value was “soluble”.
For “GQHTLKQFAADSALTTTTPLCSEVPLFDINALGDWTYLGTSLPAKFAKLFASILHCIDDEYFLITPVEKVRVQVEDAPLLIVDFERAQPHSLLNVSTSIGTLHHNVDIKQMKLTDDSVYLPLERGLWGKLGRACYYNFVNEFNLSDLNEQ”, the “soluble on expression in E. coli” value was “soluble”.
In the case of “MAHHHHHHMSFLPIRVCVLVCSYEGSDSELKEYEGEIVQTPQHYFTEEDSKEFVFTLEFVKKATAYRQIRQLVKSGAFDVFYNQCDGAIDEDKAGVEVVQALESFKVPFTGAISKYYELSKPEMKRMAHYCAVKTAPYAVLEAGDNVRELCAALHFPLIVKHISGYSSVGMDKSCKVYDMDALKERVARFIDQYQSALVEEFISGDEATVLVCADASQPGGIRVFPPVMVQFPEGEDFKHFHLKWETYEGMIWRLVSEDDPALPDIIHIARTAFLHMMGGVGYGRVDVRIDREKNTVVFLEINPNCGIMYPYGQEGSADWILRLTPEFKQKEFAKLQISEAIRIHKCKQPLFRCAYDPVREYYICATRDIPAGSIIFEGEGRLVRLCTKPYVKANWSEVEYNEFLHDAWPVGAEGHYYALWDLESSDWRAVNHSCDPNMGFCPNRSLNVHALRDIAKGEELTMDCRLFMDDTMPPFQCHCKTSICAGWIRGGVMRESHFFESYTERLIHREDKFITQLTRN”, the “soluble on expression in E. coli” value is reported as “not soluble”.
With “MNVAAILLAAGKSQRMGLCKQLLQLADRPAVAHCLDTLTAVGLQEIIVVVSPGGDEVAAAVSRYPVVVAVNESDSCDMADSARTGLARLISDPTGVLVALADHPLVRPDTVRALVNRHGEEPDAILIPVHDGAKGHPTLFPAAILQEIGQVATLRDIIGRHRDKVRLVPVADEGVVMDMDVWEDYLAMAERLNPPGLEHHHHHH” the “soluble on expression in E. coli” value was “soluble”.
In the case of “MKAHHILKVTKQYNPTEDLEFNPDLDGELVAGADNLPSVEIQVEKIADRQRQITARVQIPQPVEQVWQVLTNYEALADFIPNLAKSSLLEHPNGGIRLEQVGSQRLLNFKFCARVVLDLEEYFPKEINFQMVEGDFKGFSGNWCLQPYALGNVIGTDLCYTIQVWPKLTMPITIIERRLSQDLRSNLLAIYQRVECLANQSLLEHHHHHH”, the “soluble on expression in E. coli” value is reported as “soluble”.
For “MRRIILIFSLLTLSLMAFGEEIKVDRSVEESITKDYDQDGVYSSYEKALRRAQESVYVKLPEKRGYWYTILDRVKAEEEELMPEEINRMRRR”, the “soluble on expression in E. coli” value was “not soluble”.
For “MFISCIILINYSYIFGKNIRYLYEFKVIWKSNNSLILFFIEFDRNFMTIKFKLFKCRRLNILIELINIENYFRNGNILCFIFNIPSIPRNLLINVFLTSSNKVNISIQGLKLEHHHHHH”, the “soluble on expression in E. coli” value was “not soluble”.
With “MKMWQRKTDSSGVIQMDLKKLEGIFEGMLFASGDKVSIEKLSSITGIDKKTVKLVINNMIVKYNNDPSRGITIREINNGYQLCSKPEYYDYIKQLFEPKQRSGLSQAALETLAIIAYNRPITKAKIEQIRGVNSDSAITKLLEKNLIREAGRLDAPGKPVLYETTDEFFRSFGFKSDADLPIFELNDIHETVEINQNSEQEKADTELEKQEKA” the “soluble on expression in E. coli” value was “not soluble”.
In the case of “MRIAVIDYDKCNPDKCGHFLCERVCPVNRMGGEAIIIDEENNRPIIQEASCTGCGICVHKCPFKAISIVNLPEQLEEDCVHRYGVNAFVLYRLPVVKDGMVVGIVGPNGTGKTTAVKILAGQLIPNLCCDNDSWDDVIKAFRGSELQNYFEKLKNGEIKPVVKPQYVDLLPKAVKGKVGELLKKVDETGKFEEIVKVLELEKVLEREIDQLSGGELQRVAIAAAILRKAHFYFFDEPSSYLDIRQRLNVARVIRRLADEGKAVLVVEHDLAVLDYLSDIVHIVYGEPGVYGIFSQPKGTRNGINEFLQGYLKDENVRFRPYEIKFTKLSERVEVERETLVEYPRLVKDYGSFKLEVEPGEIRKGEVIGIVGPNGIGKTTFVKMLAGVEEPTEGKVEWDLTVAYKPQYIKAEYEGTVYDLLSKIDASKLNSNFYKTELLKPLGIIDLYDKNVNELSGGELQRVAIAATLLRDADIYLLDEPSAYLDVEQRLATSRAIRHLMEKNEKTALVVEHDVLMIDYVSDRLIVFEGEPSKYGKALPPMGMREGMNRFLASVGITFRRDPDTGRPRANKEGSVKDREQKEKGEYYYTD”, the “soluble on expression in E. coli” value is reported as “soluble”.
For “MGSDKIHHHHHHMGEYLTLPMEVYSGILVTHEGVFHGDLIVEEMAFEESRVEKDDFVISPTFFNAHTHLGDAALREAPRLDLVSIVGPGGYKHRMLSQIDSKTLRQEVELEVRISRDAGTSHFLDFREGGKAGLEIVKGIDGVLPLARPTSVEEAEEVEAFGFAYSSARDHDLKLMEEVREIARRRKMLFAIHAGEKDCADVDAALALEPDFVVHMNSCPEKIREFVEAEIPIVSCIRSNAFFGLLNKKSYELLSEYEKWMLGTDNAMISTASMLDEMHFAAYLIGKEKAILRAATASYAVFGFRHGYVVFNRNCSFRRTSDPLLTLVRRAGVKDIERVLIL”, the “soluble on expression in E. coli” value was “not soluble”.
For “MGSDKIHHHHHHMKVLHVNAGLENGGGLSHIVNLLTEAKRENKDFDLLTLADGPVAAAAREHGINTYVLGAKSRYNLASLKKLIKFINDGHYDIVHTHGARANLFLSLIHKRISAVWCVTVHSNPYLDFEGRGFLGKVFTKFNLRALKKADCIFAVTKRFANLLVNQTQLDKNKVHVIYNGIFFHNDSEIPAKYEHTYFNVINVARTEKVKGQELLLKAVKKLNDQHIRLHIAGDGSQLEPLKALTRQLNMAPQVTFHGFMTHHQLSGLYKRIDLAVLTSYSESFPLVLLEATDNLIPILSTDVGDIHKMIPGPKYGFIAKTGDIDSIAKQLELAVNKTTKQLREMAYTEKRYAEEHFSVKNQLADIEKVYSTLI”, the “soluble on expression in E. coli” value was “not soluble”.
In the case of “MGKKKFIENEDGTTEVQETESEAPKDKKEKKEYRLRTLGANIKTSKKSFKEQFFMNYEDGLKLIKKMRGKGKGGQLVQKVMPRHISLPYHMSGKAAMEEACDWIAQNTVGKYRKEYKGIVVAVGSVDLASAPRVISDQYAFHTDVAINQIVFIPKIGDQYEAKVKYVQEGLMVGVVMDMITIHIKQNDKTSEDQVAIDDKILVKYSGIRIKSSLCHLKGEYVKMIEKAEIKEEEEVEDEADEETDVKEKVKEEEDEDEDMEE”, the “soluble on expression in E. coli” value is reported as “not soluble”.
In the case of “MSLAQGRQVIGLDIGTTSTIAILVRLPDTVVAVASRPTTLSSPHPGWAEEDPAQWWDNARAVLAELKTTAGESDWRPGGICVTGMLPAVVLLDDRGAVLRPSIQQSDGRCGDEVAELRAEVDSEAFLARTGNGVTQQLVTAKLRWIERHEPAVFGAIATVCGSYDYINMLLTGERVVDRNWALEGGFIDLASGTVEADLVALAHIPPSAVPPAHPTHRVLGAVTAEAAALTGLPTGLPVYGGAADHIASALAAGITRPGDVLLKFGGAGDIIVASATAKSDPRLYLDYHLVPGLYAPNGCMAATGSALNWLAKLLAPEAGEAAHAQLDALAAEVPAGADGLVCLPYFLGEKTPIHDPFASGTFTGLSLSHTRGHLWRALLEAVALAFRHHVAVLDDIGHAPQRFFASDGGTRSRVWMGIMADVLQRPVQLLANPLGSAVGAAWVAAIGGGDDLGWDDVTALVRTGEKITPDPAKAEVYDRLYRDFSALYATLHPFFHRSREGHHHHHH”, the “soluble on expression in E. coli” value is reported as “soluble”.
For “MHSALWVSKTGMAAQDTKMTAISNNLANVNTVGFKRDRVVFEDLFYSIQRQPGAQVDQVNELPSGVQLGSGVRVVGTQKVFTQGNTQNTTQDLDLAVMGQGFFQIENSDGQIMYTRNGQFHINSEGLMVNSQGLPLEPQIQI”, the “soluble on expression in E. coli” value was “not soluble”.
For “MTLYIIANPHAGNKNASTIVGKIQELYHTEDISVFYTEQKDDEKKQVINILRSFKESDHLMIIGGDGTLSKVMTYLPQHIPCTYYPVGSGNDFARALKIPNLKETLTAIQTERLKEINCFIYDKGLILNSLDLGFAAYVVWKASNSKIKNILNRYRLGKITYIVIAIKSLLHSSKVQVLVEGETGQQIKLNDLYFFALANNTYFGGGITIWPKASALTAELDMVYAKGHTFLKRLSILLSLVFKRHTTSKSIKHQTFKAMTVYFPKNSLIEIDGEIVELDQISLKCQKRYLYM”, the “soluble on expression in E. coli” value was “not soluble”.
With “MNLVTDQDLLDVVNFFNRPLHALIAEVSKTTSDLELVRSTTQGIENICLLLDLVGTECIKDASAAKTSVLEHHHHHH” the “soluble on expression in E. coli” value was “not soluble”.
In the case of “MSLSLKIALISQNENLLNLFPKLALEKNFIPITKTASLTRASKIAFGLQDEVDAIISRGATSDYIKKSVSIPSISIKVTRFDTMRAVYNAKRFGNELALIAYKHSIVDKHEIEAMLGVKIKEFLFSSEDEITTLISKVKTENIKIVVSGKTVTDEAIKQGLYGETINSEGHHHHHH”, the “soluble on expression in E. coli” value is reported as “not soluble”.
For “MTTSALPRQAFGEMADTVILLEKATTTPICEGMNRLLASFQALYLQYQKHHFVVEGAEFYPLHQFFQDCYEQVQDHVHALGERLNGLGGVPVAGFQQLAALCCFTPEPEGAFNCRQMLSNDLQAEQAIIGVLRQQATQAESLGDRATAYLYDQILLKTEERAYHIGHFLANDSLKVLKVKLADGREHHHHHH”, the “soluble on expression in E. coli” value was “soluble”.
In the case of “MGLIKTIGRKPSVQWALSHLASGYLRLVRRTNRFTLEPADAYARLDAFGPFIAAMWHGQHIMISFMSRPQDRVATIISRSPDGNINTMALTRMGVRVMRASGARGRAVKDARAKGGAEGLRAMVKALKGGETVAFSADVPKVSRVCDAGIILLARFSGAPIVPVAVVTSRHIRFNSWDRACLGLPFGRGAMVFGEATFVPREVTPEEVDALRQRVQDELNRVHDRAYTLVGLEHHHHHH”, the “soluble on expression in E. coli” value is reported as “soluble”.
With “MSLSALIINEYREQGGTAISFPEDISRARQKLFRFLDNRFDSDQYRENVRELTPAIMAVLPVEFRTRLAPQNDTMSLIASAMKECSEAKQAVLLNAPEHQKMKEVSEGIASLFRLMPEQVGPLMTMVTSMLGVIEGHHHHHH” the “soluble on expression in E. coli” value was “not soluble”.
